# Laboratory results published in patent publication US20040132187A1.
# Target: endogenous bradykinin receptor of α7/5-HT3-SH-EP1 cells
# Test: cell-based or functional assay
substance,measurement,value
bradykinin (from UniProt P01042 381-389) (peptide),"increase in intracellular calcium (Calcium Green-1, FLIPR)",100 nM
